Experiment [1] has as its target CD3 on T cells (UniProt P07766). The experiment can be described thus: FACS on T cells, 0.01 ug antibody, PE goat anti-human secondary; panel labelled CONTROL.
Experiment [2] shares this target. The experiment can be described thus: FACS on T cells, 1 ug antibody, PE goat anti-human secondary; panel labelled CONTROL.
Experiment [3] addresses CD3 antigen (surface plasmon resonance). The experiment can be described thus: SPR, Biacore, two state reaction model. A general note: SPR reads the build-up and loss of mass on a sensor chip optically.
For experiment [4], the target named is CD3 on T cells (UniProt P07766). The experiment can be described thus: FACS on T cells, 0.1 ug antibody, PE goat anti-human secondary; panel labelled CONTROL.
Chain of CD3 on T cells (P07766 23-207, chain 1 of 3): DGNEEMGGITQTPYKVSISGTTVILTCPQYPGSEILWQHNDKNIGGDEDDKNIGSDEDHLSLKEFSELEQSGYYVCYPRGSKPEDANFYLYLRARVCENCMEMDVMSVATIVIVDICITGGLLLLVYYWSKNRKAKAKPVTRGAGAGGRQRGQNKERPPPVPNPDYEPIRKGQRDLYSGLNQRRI
Chain of CD3 on T cells (P09693 23-182, chain 2 of 3, further chain): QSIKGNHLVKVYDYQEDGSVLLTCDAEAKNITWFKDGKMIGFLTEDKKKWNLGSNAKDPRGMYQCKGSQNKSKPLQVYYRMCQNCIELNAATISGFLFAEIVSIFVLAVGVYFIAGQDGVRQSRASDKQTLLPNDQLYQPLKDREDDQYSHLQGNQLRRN
Chain of CD3 on T cells (P04234 22-171, chain 3 of 3, further chain): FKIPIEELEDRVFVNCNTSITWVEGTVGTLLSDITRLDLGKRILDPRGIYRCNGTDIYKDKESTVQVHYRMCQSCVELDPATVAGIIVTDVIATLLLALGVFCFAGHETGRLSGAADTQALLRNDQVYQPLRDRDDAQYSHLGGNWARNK
Experiment [5] has as its target human chondroitin sulfate proteoglycan 4 (CSPG4) on cells (human) (UniProt Q6UVK1). The experiment can be described thus: FACS on M14 cells, negative control antibody, amount not given, PE goat anti-human secondary; the same row stands in all three tables of the figure.
Experiment [6] has as its target CD3 on T cells (UniProt P07766). The experiment can be described thus: FACS on T cells, negative control antibody, amount not given, PE goat anti-human secondary; the same row stands in all three tables of the figure.

As a reminder, the Kd is the concentration at which binding is half-saturated. Read a low Kd as a tighter complex. A word on the koff: it is the rate constant with which the complex falls apart. A high value points to fast dissociation. As a reminder, the kon is the second-order rate constant of association. A low value points to slow association.

Chain of human chondroitin sulfate proteoglycan 4 (CSPG4) on cells (human) (Q6UVK1 30-2322 limits assumed): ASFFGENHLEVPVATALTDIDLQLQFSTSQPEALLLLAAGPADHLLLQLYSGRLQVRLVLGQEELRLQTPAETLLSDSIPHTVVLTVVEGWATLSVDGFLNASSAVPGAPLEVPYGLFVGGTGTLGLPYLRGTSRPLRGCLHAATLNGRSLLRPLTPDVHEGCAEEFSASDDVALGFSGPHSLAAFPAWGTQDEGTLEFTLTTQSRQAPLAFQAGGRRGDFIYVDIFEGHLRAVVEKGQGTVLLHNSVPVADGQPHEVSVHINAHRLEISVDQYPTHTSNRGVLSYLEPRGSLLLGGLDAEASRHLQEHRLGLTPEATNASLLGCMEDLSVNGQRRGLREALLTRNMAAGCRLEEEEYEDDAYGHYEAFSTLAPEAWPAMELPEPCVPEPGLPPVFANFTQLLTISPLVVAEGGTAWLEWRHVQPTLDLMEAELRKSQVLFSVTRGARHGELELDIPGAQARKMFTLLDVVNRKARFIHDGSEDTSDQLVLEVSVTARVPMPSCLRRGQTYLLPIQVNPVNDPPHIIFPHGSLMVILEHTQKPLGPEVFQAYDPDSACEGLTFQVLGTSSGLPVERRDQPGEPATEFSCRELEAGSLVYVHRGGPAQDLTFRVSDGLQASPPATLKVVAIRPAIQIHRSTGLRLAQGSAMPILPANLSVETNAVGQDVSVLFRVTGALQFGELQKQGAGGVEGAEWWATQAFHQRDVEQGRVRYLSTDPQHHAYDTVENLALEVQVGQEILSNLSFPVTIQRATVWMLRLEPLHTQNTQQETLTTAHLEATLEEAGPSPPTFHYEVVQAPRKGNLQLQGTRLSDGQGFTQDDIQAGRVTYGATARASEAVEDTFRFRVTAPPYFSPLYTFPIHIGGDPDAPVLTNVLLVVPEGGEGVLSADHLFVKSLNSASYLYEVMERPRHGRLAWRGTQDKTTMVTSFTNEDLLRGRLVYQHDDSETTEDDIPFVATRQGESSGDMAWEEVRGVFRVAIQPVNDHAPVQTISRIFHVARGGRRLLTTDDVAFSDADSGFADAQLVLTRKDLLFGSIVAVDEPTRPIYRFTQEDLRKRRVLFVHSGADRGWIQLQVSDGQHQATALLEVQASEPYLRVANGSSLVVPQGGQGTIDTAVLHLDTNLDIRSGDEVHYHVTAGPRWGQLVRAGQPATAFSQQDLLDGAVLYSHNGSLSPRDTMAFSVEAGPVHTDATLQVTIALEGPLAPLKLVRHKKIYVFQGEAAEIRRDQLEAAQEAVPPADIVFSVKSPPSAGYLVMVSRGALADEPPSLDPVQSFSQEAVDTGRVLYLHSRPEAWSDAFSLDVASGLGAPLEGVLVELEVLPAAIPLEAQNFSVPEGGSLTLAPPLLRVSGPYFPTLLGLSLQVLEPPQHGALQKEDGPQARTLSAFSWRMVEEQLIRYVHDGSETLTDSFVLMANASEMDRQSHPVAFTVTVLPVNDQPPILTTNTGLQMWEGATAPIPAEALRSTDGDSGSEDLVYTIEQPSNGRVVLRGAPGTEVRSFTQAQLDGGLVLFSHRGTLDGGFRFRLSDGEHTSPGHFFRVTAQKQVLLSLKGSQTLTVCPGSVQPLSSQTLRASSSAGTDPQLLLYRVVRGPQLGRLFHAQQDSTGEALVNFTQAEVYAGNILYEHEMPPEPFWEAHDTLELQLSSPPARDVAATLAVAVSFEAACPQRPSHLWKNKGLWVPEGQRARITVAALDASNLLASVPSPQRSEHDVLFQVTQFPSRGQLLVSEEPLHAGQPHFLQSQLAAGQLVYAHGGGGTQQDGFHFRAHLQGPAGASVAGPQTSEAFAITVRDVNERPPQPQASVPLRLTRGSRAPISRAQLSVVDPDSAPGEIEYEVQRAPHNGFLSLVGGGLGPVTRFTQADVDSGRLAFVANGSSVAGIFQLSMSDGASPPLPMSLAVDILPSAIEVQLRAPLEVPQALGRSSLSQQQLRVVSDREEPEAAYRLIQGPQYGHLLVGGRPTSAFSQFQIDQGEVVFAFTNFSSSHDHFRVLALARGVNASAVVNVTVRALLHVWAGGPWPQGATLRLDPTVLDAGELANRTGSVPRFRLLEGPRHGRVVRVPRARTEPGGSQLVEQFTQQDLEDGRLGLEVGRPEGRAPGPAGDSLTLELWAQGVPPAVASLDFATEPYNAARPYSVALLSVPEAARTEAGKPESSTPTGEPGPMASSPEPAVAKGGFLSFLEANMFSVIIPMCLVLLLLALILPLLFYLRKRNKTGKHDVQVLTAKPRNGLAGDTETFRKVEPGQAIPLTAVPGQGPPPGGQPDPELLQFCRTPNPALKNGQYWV

Consider humanized OKT3 IgG1-aGlyco (antibody), for which the GEOMETRIC MEAN : FL2-H was determined as 66.1 in the experiment with CD3 on T cells [1], 2010 with CD3 on T cells [2] and 645 in the experiment with CD3 on T cells [4]. The Kd in experiment [3] was 61.7 nM. In addition, in experiment [3], the koff is 0.105 s⁻¹. This substance had a kon in experiment [3] of 1.71e+06 M⁻¹ s⁻¹.
Regarding “control human IgG1 antibody (non-specific for CSPG4 or T cells)”, the GEOMETRIC MEAN : FL2-H amounted to 5.15 in experiment [5] and 5.1 with CD3 on T cells [6].

Values taken from US20170342151A1.
